The target in assay [1] is T1, IDE (Homo sapiens, UniProt P14735).
T1 construct: made in house; host or cells: bacteria
T1 sequence (P14735 1-1019): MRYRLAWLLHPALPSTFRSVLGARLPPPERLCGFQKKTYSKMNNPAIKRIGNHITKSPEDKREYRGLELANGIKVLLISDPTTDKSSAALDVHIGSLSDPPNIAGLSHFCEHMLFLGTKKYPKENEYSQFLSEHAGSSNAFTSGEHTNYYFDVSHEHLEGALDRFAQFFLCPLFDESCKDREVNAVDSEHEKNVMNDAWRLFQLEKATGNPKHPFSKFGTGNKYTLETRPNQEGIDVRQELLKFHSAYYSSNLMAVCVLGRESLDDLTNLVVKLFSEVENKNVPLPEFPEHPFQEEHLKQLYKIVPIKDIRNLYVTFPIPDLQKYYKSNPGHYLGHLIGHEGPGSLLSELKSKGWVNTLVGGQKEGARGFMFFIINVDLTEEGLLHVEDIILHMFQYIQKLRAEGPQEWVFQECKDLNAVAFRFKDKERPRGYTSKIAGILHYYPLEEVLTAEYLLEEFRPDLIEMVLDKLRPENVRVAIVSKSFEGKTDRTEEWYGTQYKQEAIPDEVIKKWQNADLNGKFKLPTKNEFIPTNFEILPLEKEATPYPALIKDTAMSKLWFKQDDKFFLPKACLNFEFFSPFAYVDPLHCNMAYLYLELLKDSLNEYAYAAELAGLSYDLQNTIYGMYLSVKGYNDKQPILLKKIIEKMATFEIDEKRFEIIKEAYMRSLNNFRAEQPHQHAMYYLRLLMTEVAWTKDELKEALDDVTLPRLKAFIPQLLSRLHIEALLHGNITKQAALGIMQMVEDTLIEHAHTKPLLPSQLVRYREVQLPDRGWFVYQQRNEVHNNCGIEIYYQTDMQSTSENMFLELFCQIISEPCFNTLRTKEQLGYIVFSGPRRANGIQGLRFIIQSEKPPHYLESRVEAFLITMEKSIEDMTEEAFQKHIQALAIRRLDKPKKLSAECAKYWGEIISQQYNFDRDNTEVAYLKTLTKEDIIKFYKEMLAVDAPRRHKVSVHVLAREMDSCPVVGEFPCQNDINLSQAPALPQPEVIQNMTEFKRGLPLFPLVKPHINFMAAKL
Nature of the assay: IDE protease activity assay with FRET1 substrate. In kind it is biochemical. The following applies: Ki converted from IC50 with the Cheng-Prusoff equation.

The target in assay [2] is T1, IDE. As to the kind of experiment: IDE protease activity assay, insulin degradation quantified by ELISA. It counts as biochemical. The following applies: substrate recombinant human insulin; Ki converted from IC50 with the Cheng-Prusoff equation; read-out: Ki Insulin. Here is the method: To assess the extent to which these peptide sequences inhibit IDE, we quantified their potency in protease activity assays using recombinant human IDE and two different substrates: FRET1, a fluorogenic peptide (45), and recombinant human insulin.
Degradation Assays—IDE activity was quantified by monitoring the degradation of (7-methoxycoumarin-4-yl)acetic acid-[…](2,4-dinitrophenyl) (FRET1, 5 μM) (49,55), fluoresceinated and biotinylated amyloid β-protein (FAβB; 500 nM) or recombinant human insulin (50 nM) in PBS supplemented with 0.05% BSA. FRET1 degradation was measured by changes in fluorescence (λex=340 nm, λem=420 nm); FAβB degradation was monitored by fluorescence polarization (λex=488 nm, λem=525 nm), as described (56); and insulin degradation was quantified by ELISA. In vitro activity assays incorporated recombinant human IDE (1 nM) purified from bacteria (35). For quantitation of insulin degradation in primary murine skin fibroblasts, cells (1×10^5/well) were plated in 96-well plates and maintained in DMEM supplemented with 10% fetal bovine serum (FBS), 2 mM glutamine, penicillin and streptomycin. After addition of insulin (10 nM or 100 nM), samples of conditioned medium were removed daily and quickly frozen, then insulin levels were quantified in parallel by ELISA according to manufacturer's recommendations (Crystal Chem, Downers Grove, Ill., USA). Assessment of the activity of P12-3A against a variety of matrix-metalloproteases was conducted using the Matrix Metalloproteinase (MMP) Inhibitor Profiling Kit, Fluorometric RED (Enzo Life Sciences, Inc., Farmingdale, N.Y., USA) according to manufacturer's recommendations using the broad-spectrum MMP inhibitor, NNGH, as a positive control.
For orientation: ELISA stands for enzyme-linked immunosorbent assay.

Assay [3] concerns the target T2, recombinant human insulin-degrading enzyme (IDE) (human, UniProt P14735 42-1019, limits assumed).
T2 construct: Used at 1 nM in the in vitro activity assays; immobilised on plates for phage panning
T2 sequence (looked up): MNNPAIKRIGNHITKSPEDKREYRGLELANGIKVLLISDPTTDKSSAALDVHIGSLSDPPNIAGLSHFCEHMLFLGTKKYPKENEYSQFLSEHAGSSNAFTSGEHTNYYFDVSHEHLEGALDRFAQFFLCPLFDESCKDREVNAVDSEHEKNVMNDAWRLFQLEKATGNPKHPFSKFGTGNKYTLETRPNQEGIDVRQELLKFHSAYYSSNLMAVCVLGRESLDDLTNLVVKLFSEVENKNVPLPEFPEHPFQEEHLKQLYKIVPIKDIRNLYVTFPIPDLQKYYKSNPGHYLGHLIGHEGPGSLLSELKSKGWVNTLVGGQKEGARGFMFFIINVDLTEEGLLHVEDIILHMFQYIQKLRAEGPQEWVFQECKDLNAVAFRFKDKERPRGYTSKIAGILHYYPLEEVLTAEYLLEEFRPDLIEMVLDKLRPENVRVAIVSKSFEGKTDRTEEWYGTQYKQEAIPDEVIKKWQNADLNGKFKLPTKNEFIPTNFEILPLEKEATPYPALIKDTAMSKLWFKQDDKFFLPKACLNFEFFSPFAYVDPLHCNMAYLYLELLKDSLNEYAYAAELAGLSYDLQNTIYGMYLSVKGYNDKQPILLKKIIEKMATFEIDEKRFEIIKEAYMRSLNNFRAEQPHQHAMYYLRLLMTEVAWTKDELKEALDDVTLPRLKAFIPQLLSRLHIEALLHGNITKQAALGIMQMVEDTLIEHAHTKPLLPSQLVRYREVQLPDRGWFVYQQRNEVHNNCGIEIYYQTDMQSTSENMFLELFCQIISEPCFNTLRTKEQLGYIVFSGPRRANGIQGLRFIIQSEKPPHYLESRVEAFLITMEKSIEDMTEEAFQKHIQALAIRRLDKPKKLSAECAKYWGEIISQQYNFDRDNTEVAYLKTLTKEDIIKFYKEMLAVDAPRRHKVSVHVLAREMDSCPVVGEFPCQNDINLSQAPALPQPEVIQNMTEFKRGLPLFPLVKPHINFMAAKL
Nature of the assay: IDE activity assay, FRET1 substrate.

The target in assay [4] is T2, recombinant human insulin-degrading …. Nature of the assay: IDE activity assay, insulin substrate (ELISA).

Where a SMILES comes first, the peptide text is derived from it. Bridges are numbered along the chain shown (N, C = ends). Where no end group is shown, it is not given here.

Results on 19 molecules are retold here after patent publication US11555055B2, “Peptide inhibitors of insulin-degrading enzyme” (The Regents of the University of California, priority 2017, dated 2023).

As to `CC[C@H](C)[C@@H]1NC(=O)[C@H](CO)NC(=O)[C@H](Cc2c[nH]c3ccccc23)NC(=O)[C@H](Cc2c[nH]c3ccccc23)NC(=O)[C@H](CO)NC(=O)[C@@H](NC(=O)[C@H](C)N)CSSC[C@@H](C(=O)NCC(=O)O)NC(=O)[C@H](CC(C)C)NC(=O)[C@H](Cc2c[nH]cn2)NC1=O` [Peptide C7C-1] (H-ACSWWSIHLCG-OH; disulfide 2-10), the figures for the inhibition constant (Ki) on IDE [1] and on IDE [2] were 112 ± 6 µM and 3.7 ± 0.7 µM, respectively.
The matching figures for `CC(C)[C@H](N)C(=O)N[C@@H](Cc1c[nH]cn1)C(=O)N[C@@H](Cc1c[nH]c2ccccc12)C(=O)N[C@@H](CC(=O)O)C(=O)N[C@@H](Cc1ccccc1)C(=O)N[C@@H](CCCNC(=N)N)C(=O)N[C@@H](CCC(N)=O)C(=O)N[C@@H](Cc1c[nH]c2ccccc12)C(=O)N[C@@H](Cc1c[nH]c2ccccc12)C(=O)N[C@@H](CCC(N)=O)C(=O)N1CCC[C@H]1C(=O)N[C@@H](CO)C(N)=O` [Peptide P12-1A] (H-VHWDFRQWWQPS-NH2): 5 ± 0.3 µM and 1.3 ± 0.2 µM.
The matching figures for `CC(C)[C@H](N)C(=O)N[C@@H](Cc1c[nH]cn1)C(=O)N[C@@H](Cc1c[nH]c2ccccc12)C(=O)N[C@@H](CC(=O)O)C(=O)N[C@@H](Cc1ccccc1)C(=O)N[C@@H](CCCNC(=N)N)C(=O)N[C@@H](CCC(N)=O)C(=O)N[C@@H](Cc1c[nH]c2ccccc12)C(N)=O` [Peptide P12-1B] (H-VHWDFRQW-NH2): 41 ± 6.4 µM and 7 ± 1.7 µM.
With `CC(C)[C@H](N)C(=O)N[C@@H](Cc1c[nH]cn1)C(=O)N[C@@H](Cc1c[nH]c2ccccc12)C(=O)N[C@@H](CC(=O)O)C(=O)N[C@@H](Cc1ccccc1)C(=O)N[C@@H](CCCNC(=N)N)C(=O)N[C@@H](CCC(N)=O)C(=O)N[C@@H](Cc1c[nH]c2ccccc12)C(=O)N[C@@H](Cc1c[nH]c2ccccc12)C(=O)N[C@@H](CCC(N)=O)C(=O)N1CCC[C@H]1C(=O)N[C@@H](CO)C(=O)O` [Peptide P12-1] (H-VHWDFRQWWQPS-OH), the inhibitory constant (Ki) (as a rule, the dissociation constant of the complex between target and ligand, obtained from inhibition or displacement) amounted to 7.7 ± 0.7 µM on IDE [1] and 0.8 ± 0.04 µM at IDE [2].
Regarding `CC(C)C[C@H](NC(=O)[C@H](CO)NC(=O)[C@@H](N)CCC(N)=O)C(=O)N1CCC[C@H]1C(=O)N[C@@H](Cc1c[nH]c2ccccc12)C(=O)N[C@@H](CS)C(=O)N[C@@H](Cc1ccc(O)cc1)C(=O)N1CCC[C@H]1C(N)=O` [Peptide P12-3B] (H-QSLPWCYP-NH2), the affinity at IDE [1], expressed as Ki, was 39 ± 20 µM.
`CC[C@H](C)[C@H](NC(=O)[C@@H]1CCCN1C(=O)[C@H](CO)NC(=O)[C@@H](N)Cc1c[nH]c2ccccc12)C(=O)N[C@@H](CO)C(=O)NCC(=O)N[C@@H](CCCCN)C(=O)N[C@@H](Cc1ccccc1)C(=O)N[C@@H](Cc1ccccc1)C(=O)N[C@@H](CCC(N)=O)C(=O)N[C@@H](CCCNC(=N)N)C(=O)N[C@@H](Cc1ccccc1)C(N)=O` [Peptide P12-4A] (H-WSPISGKFFQRF-NH2): the Ki on IDE [1] was 4.2 ± 1.3 µM; on IDE [2], 2.6 ± 0.7 µM.
Turning to Ac-FPMPSRPH-NH2 [P12-2D], the values for the inhibitory constant (Ki) in assay [3] and in assay [4] were above 500 µM and above 10 µM, respectively.

B1: P12-3B (peptide)
peptide: QSLPWCYP-NH2
notes: also called C-terminally truncated variant of P12-3
As to B1, the Ki in assay [4] is above 10 µM.
For the molecule LNFPMPSRPHSS-NH2 [P12-2A], the inhibition constant (Ki) was above 100 µM in assay [3] and above 10 µM in assay [4].
The matching figures for Ac-SGKFFQRF [P12-4C]: above 500 µM and above 10 µM.
The matching figures for Ac-PISGKFFQ-NH2 [P12-4D]: above 500 µM and above 10 µM.
For WSPISGKF-NH2 [P12-4B], the Ki in assay [3] is above 500 µM; in assay [4], above 10 µM.

B2: C7C-2 (peptide)
peptide: ACNAGHLSQCG
modifications: disulfide 2-10 (inferred)
notes: the synthesized peptide has one C-terminal glycine
In the case of B2, the Ki is above 500 µM in assay [3] and above 10 µM in assay [4].

B3: P12-3C (peptide)
peptide: Ac-WCYPHCVT-OH
modifications: cysteine pairing not given here
notes: also called N-terminally truncated variant of P12-3
As for B3, the Ki in assay [4] was above 10 µM.
On to ACSWWSIHLCGGG (disulfide 2-10 (inferred)) [C7C-1B], for which the Ki in assay [3] is above 100 µM; in assay [4], above 10 µM.
Consider Ac-MPSRPHSS [P12-2C], for which the Ki in assay [3] was above 500 µM; in assay [4] it was above 10 µM.
Take LNFPMPSR-NH2 [P12-2B]: the inhibition constant (Ki) was above 500 µM in assay [3] and above 10 µM in assay [4].

B4: C7C-2A (peptide)
peptide: ACNAGHLSQCG-NH2
modifications: disulfide 2-10 (inferred)
notes: also called amidated derivative of C7C-2
Regarding B4, the inhibition constant Ki was above 500 µM in assay [3] and above 10 µM in assay [4].
The matching figures for LNFPMPSRPHSS [P12-2]: above 100 µM and above 10 µM.
